The values below come from patent publication US20230272056A1 (Merck Sharp & Dohme, published 2023).

First the molecules themselves.
B1: VH D52Y (77BIT) (Fab, V domains shown)
VH: EVQLVQSGAEVKKPGASVKVSCKASGYTFTSYWMHWVRQAPGQGLEWMGRIYPQSGGIKYAQKFQGRATLTVDTSTSTAYMELSRLRSDDTAVYYCARWDYGGYFDVWGQGTLVTVSS
VL: DIQMTQSPSSLSASVGDRVTITCRASQDITNYLNWYQQKPGKAVKLLIYYTSRLHSGVPSRFSGSGSGTDYTLTISSLQPEDFATYFCQQGDTLPWTFGQGTKLEIKR
B2: VL L54Y (51BIT) (Fab, V domains shown)
VH: B1 VH with Y52D
VL: B1 VL with L54Y
B3: VH H35Y (73BIT) (Fab, V domains shown)
VH: B1 VH with H35Y, Y52D
VL: B1 VL
B4: VH M34Y (72BIT) (Fab, V domains shown)
VH: B1 VH with M34Y, Y52D
VL: B1 VL
B5: VH T30Y (69BIT) (Fab, V domains shown)
VH: B1 VH with T30Y, Y52D
VL: B1 VL
B6: VL A25Y (39BIT) (Fab, V domains shown)
VH: B1 VH with Y52D
VL: B1 VL with A25Y
B7: VL D28Y (42BIT) (Fab, V domains shown)
VH: B1 VH with Y52D
VL: B1 VL with D28Y
B8: VL G91Y (56BIT) (Fab, V domains shown)
VH: B1 VH with Y52D
VL: B1 VL with G91Y
B9: VL I29Y (43BIT) (Fab, V domains shown)
VH: B1 VH with Y52D
VL: B1 VL with I29Y
B10: VH G98Y (65BIT) (Fab, V domains shown)
VH: B1 VH with Y52D, G102Y
VL: B1 VL
B11: VL H55Y (52BIT) (Fab, V domains shown)
VH: B1 VH with Y52D
VL: B1 VL with H55Y
B12: VH T28Y (67BIT) (Fab, V domains shown)
VH: B1 VH with T28Y, Y52D
VL: B1 VL
B13: VH K58Y (84BIT) (Fab, V domains shown)
VH: B1 VH with Y52D, K59Y
VL: B1 VL
B14: VH F29Y (68BIT) (Fab, V domains shown)
VH: B1 VH with F29Y, Y52D
VL: B1 VL
B15: VH Q53Y (79BIT) (Fab, V domains shown)
VH: B1 VH with Y52D, Q54Y
VL: B1 VL
B16: VL D92Y (57BIT) (Fab, V domains shown)
VH: B1 VH with Y52D
VL: B1 VL with D92Y
B17: VL L33Y (46BIT) (Fab, V domains shown)
VH: B1 VH with Y52D
VL: B1 VL with L33Y
B18: VH S31Y (70BIT) (Fab, V domains shown)
VH: B1 VH with S31Y, Y52D
VL: B1 VL
B19: VH I57Y (83BIT) (Fab, V domains shown)
VH: B1 VH with Y52D, I58Y
VL: B1 VL
B20: VH P52aY (78BIT) (Fab, V domains shown)
VH: B1 VH with Y52D, P53Y
VL: B1 VL
B21: VH I51Y (76BIT) (Fab, V domains shown)
VH: B1 VH with I51Y, Y52D
VL: B1 VL
B22: VH W95Y (88BIT) (Fab, V domains shown)
VH: B1 VH with Y52D, W99Y
VL: B1 VL
B23: VH R50Y (75BIT) (Fab, V domains shown)
VH: B1 VH with R50Y, Y52D
VL: B1 VL
notes: also called VH RSOY (75BIT)
B24: VH G99Y (66BIT) (Fab, V domains shown)
VH: B1 VH with Y52D, G103Y
VL: B1 VL
B25: VH G55Y (81BIT) (Fab, V domains shown)
VH: B1 VH with Y52D, G56Y
VL: B1 VL
B26: VH G56Y (82BIT) (Fab, V domains shown)
VH: B1 VH with Y52D, G57Y
VL: B1 VL
B27: VH D96Y (64BIT) (Fab, V domains shown)
VH: B1 VH with Y52D, D100Y
VL: B1 VL
B28: VH S54Y (80BIT) (Fab, V domains shown)
VH: B1 VH with Y52D, S55Y
VL: B1 VL
B29: VH W33Y (71BIT) (Fab, V domains shown)
VH: B1 VH with W33Y, Y52D
VL: B1 VL

Changes are numbered by the printed parent chain. In names and notes the source's numbering stands.

The target of the assay is T1, human LAP-TGFB1 Fc fusion (human).
T1 construct: also called human LAP-TGFβ1-Fc; human LAP-TGFβ-Fc isoform 1
T1 sequence (chain, as listed by the source limits assumed): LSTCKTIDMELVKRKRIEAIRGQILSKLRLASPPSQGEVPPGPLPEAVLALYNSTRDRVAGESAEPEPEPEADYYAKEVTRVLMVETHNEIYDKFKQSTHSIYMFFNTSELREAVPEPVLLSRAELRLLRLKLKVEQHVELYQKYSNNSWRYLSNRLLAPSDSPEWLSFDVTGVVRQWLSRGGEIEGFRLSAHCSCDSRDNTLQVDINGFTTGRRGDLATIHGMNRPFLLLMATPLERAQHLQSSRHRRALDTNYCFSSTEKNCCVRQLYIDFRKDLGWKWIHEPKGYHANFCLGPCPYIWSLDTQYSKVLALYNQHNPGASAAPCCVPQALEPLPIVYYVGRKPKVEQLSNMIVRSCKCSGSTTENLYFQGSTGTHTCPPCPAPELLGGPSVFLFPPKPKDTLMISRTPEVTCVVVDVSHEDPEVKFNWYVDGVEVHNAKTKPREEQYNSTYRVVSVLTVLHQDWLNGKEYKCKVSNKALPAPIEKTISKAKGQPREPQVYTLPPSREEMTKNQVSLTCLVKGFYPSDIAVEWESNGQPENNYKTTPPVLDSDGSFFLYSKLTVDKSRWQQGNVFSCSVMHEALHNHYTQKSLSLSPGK
Put plainly: BLI off-rate screen. The method, then:
The Fab mutants including a positive control, 20E6 Fab, and a negative control Fab (Molecular Innovations, catalog HU-FAB-4510) were diluted to 200 nM in assay buffer and loaded to FAB2G sensors for 180 seconds followed by a one-hour incubation at room temperature in assay buffer to equilibrate the tips. The Fab loaded sensors were assessed for binding with 100 nM human LAP-TGFβ for 180 seconds followed by a 180 second dissociation phase in assay buffer on a ForteBio HTX (software version 9.0.0.66). Non-specific binding to the negative control Fab was subtracted and the binding sensorgrams were aligned to the start of the association phase on the X and Y axis. The Fab binding was fit with the 1:1 binding model, dissociation phase only, with local fitting using ForteBio Data Analysis 9.0 software.
Twenty-three variants containing a single tyrosine substitution in the light chain CDRs (at one of amino acid positions 24-31, 33, 34, 51-56, and 89-95 according to Kabat numbering scheme) and 21 similar heavy chain CDR variants (at amino acids positions 28-31, 33-35, 50-58 including 52a, 95, 96, 98, and 99 according to Kabat numbering scheme) were generated according to FIG. 1 and listed in Table 6 and their interactions with human LAP-TGFb1 were analyzed by ForteBio interferometry. […] In those sequences the VL is correct, even though these sequences are from the heavy chain. Thus, the VL_X ##Y refers to the position of the tyrosine mutation within the antibody, regardless of whether the sequence is a heavy or light chain.
As to B1, the Binding response turned out to be 0.042 nm and the binding result is recorded as “no binding (tested: 100 nM antigen)”.
In general, koff refers to the rate constant with which the complex falls apart. High values mean a short-lived complex, low ones a long-lived complex. For the molecule B2, the Binding response was determined as 0.299 nm, the Fold change is 1 fold and the koff was determined as 0.0405 s⁻¹.
Molecule B3 registered a Binding response of 0.334 nm, a Fold change of 0.9 fold and a koff of 0.0471 s⁻¹.
In the same order, the values of B4 are 0.623 nm, 1 fold and 0.0414 s⁻¹.
Regarding B5, the Binding response is 0.372 nm, the Fold change amounted to 1.2 fold and the koff was found to be 0.0365 s⁻¹.
In the case of B6, the Binding response stood at 0.043 nm and the binding result was “no binding (tested: 100 nM antigen)”.
Molecule B7 registered a Binding response of 0.207 nm, a Fold change of 1.3 fold and a koff of 0.0318 s⁻¹.
With B8, the Binding response turned out to be 0.044 nm and the binding result is “no binding (tested: 100 nM antigen)”.
The molecule B9 yielded a Binding response of 0.071 nm, a Fold change of 1.6 fold and a dissociation rate constant (koff) of 0.0264 s⁻¹.
With B10, the Binding response is 0.037 nm and the binding result is “no binding (tested: 100 nM antigen)”.
B11: the Binding response came to 0.265 nm, the Fold change was 1.1 fold and the dissociation rate constant (koff) was determined as 0.0385 s⁻¹.
The like results for B12 were, in that order, 0.326 nm, 1.2 fold and 0.0343 s⁻¹.
The molecule B13 returned a Binding response of 0.339 nm, a Fold change of 1.3 fold and a koff of 0.0327 s⁻¹.
The like results for B14 were, in that order, 0.597 nm, 1.3 fold and 0.0336 s⁻¹.
The like results for B15 were, in that order, 0.625 nm, 1 fold and 0.0416 s⁻¹.
Regarding B16, the Binding response worked out at 0.046 nm and the binding result is listed as “no binding (tested: 100 nM antigen)”.
In turn, B17 returned a Binding response of 0.095 nm, a Fold change of 1 fold and a koff of 0.0413 s⁻¹.
For the molecule B18, the Binding response is 0.696 nm, the Fold change amounted to 1.2 fold and the off-rate (koff) was 0.0361 s⁻¹.
In the same order, the values of B19 are 0.555 nm, 1 fold and 0.043 s⁻¹.
The like results for B20 were, in that order, 0.566 nm, 0.9 fold and 0.0454 s⁻¹.
The like results for B21 were, in that order, 0.6 nm, 1.1 fold and 0.0379 s⁻¹.
Molecule B22 had a Binding response of 0.638 nm, a Fold change of 1 fold and an off-rate constant (koff) of 0.0425 s⁻¹.
The molecule B23 gave a Binding response of 0.324 nm, a Fold change of 0.9 fold and a koff of 0.0445 s⁻¹.
In the same order, the values of B24 are 0.055 nm, 0.9 fold and 0.0476 s⁻¹.
In the same order, the values of B25 are 0.542 nm, 1.2 fold and 0.036 s⁻¹.
The like results for B26 were, in that order, 0.569 nm, 1 fold and 0.0436 s⁻¹.
B27 had a Binding response of 0.102 nm, a Fold change of 0.6 fold and a koff of 0.0746 s⁻¹.
In the same order, the values of B28 are 0.588 nm, 1 fold and 0.0406 s⁻¹.
The like results for B29 were, in that order, 0.77 nm, 1.8 fold and 0.023 s⁻¹.
